How the values were obtained:
[1] = molecular target: T1, C0C2-3P, tris-phosphorylated C0C2 (UniProt Q14896 1-452, tris-phosphorylated by PKA (m-motif; sites not given)); test: MST; Monolith NT.115; 100 nmol/l Alexa647-labelled protein fixed, partner titrated; 20 mmol/l Mops pH 7, 1 mmol/l MgCl2, 50 mmol/l KCl, 1 mmol/l DTT, 0.05% Tween-20; conditions: both partners purified
T1 construct: not shown: His tag, N-terminal, cleaved

[2] = molecular target: T2, C0C2, cMyBP-C spanning domains C0 to C2 (UniProt Q14896 1-452); test: as above; conditions: both partners purified
T2 construct: also called N-terminal domains (NTD) of cMyBP-C; C0-P/A-C1-m-C2; source: E. coli BL21(DE3)-RIPL, purified (HisTrapFF, TEV, ion exchange); not shown: His tag, N-terminal, cleaved
T2 sequence (Q14896 1-452): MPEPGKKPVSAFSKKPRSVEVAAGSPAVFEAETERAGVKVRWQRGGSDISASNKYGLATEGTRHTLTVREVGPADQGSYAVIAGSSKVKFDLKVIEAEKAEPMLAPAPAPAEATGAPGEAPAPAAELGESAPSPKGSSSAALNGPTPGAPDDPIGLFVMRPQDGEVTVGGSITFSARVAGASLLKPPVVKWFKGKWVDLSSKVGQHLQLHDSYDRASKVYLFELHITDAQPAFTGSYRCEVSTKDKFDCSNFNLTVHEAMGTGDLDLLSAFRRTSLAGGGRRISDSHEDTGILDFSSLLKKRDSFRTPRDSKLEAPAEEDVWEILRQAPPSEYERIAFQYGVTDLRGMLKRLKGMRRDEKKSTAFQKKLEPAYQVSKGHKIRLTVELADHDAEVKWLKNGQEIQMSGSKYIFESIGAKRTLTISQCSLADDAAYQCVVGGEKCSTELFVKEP

T1 sequence (Q14896 1-452): as above

B1: phospho-miniHMM (miniHMM phosphorylated in vitro by cMLCK) (complex)
chain 1: RDSLLVIQWNIRAFMGVKNWPWMKLYFKIKPLLKSAEREKEMASMKEEFTRLKEALEKSEARRKELEEKMVSLLQEKNDLQLQVQAEQDNLADAEERCDQLIKNKIQLEAKVKEMNERLEDEEEMNAELTAKKRKLEDECSELKRDIDDLELTLAK
chain 2: APKKAKKRAGGANSNVFSMFEQTQIQEFKEAFTIMDQNRDGFIDKNDLRDTFAALGRVNVKNEEIDEMIKEAPGPINFTVFLTMFGEKLKGADPEETILNAFKVFDPEGKGVLKADYVREMLTTQAERFSKEEVDQMFAAFPPDVTGNLDYKNLVHIITHGEEKD
modifications: phosphorylated by cMLCK to about 1 mol Pi/mol RLC (site not given)
Kd [1]: 5 µM | Kd [2]: 2.7 µM
